Results taken from IntAct's records for PubMed 19942853.

B1: Cullin-associated NEDD8-dissociated protein 1 homolog (Saccharomyces cerevisiae), Q92325 (parent)
chain: MSLHISKLIEQYRSTKDNDLKYMLLRQNFKINDIEDELAPLVNELLLPVLVEEQDMEILNLVSFQVLPDLVLSMISDPAAAQLGWVISLICDPLLNQSMIHANRSFVLIETLRNVLQKIENSPHLDYHQPVNSSLEFISKFIVEMKRHMCDVDAAQLSHSLSESNMLIYIESLNLLLKFSFFSDAASPSVMVTLPFDILNDVFTIAQDYSATNTNESIDRITEKLLLTSTQLTHPVDLENLCPKMKYNTLAAVSRIWYKFGPIVDKLFTNRLLPVLFPPQMGEECNVEDVLEIVHNFHPYFSIRRLKDNRPLLSDSTISQLREGLFGMLSILNDSLTRTQNENDHGSDNLIDSDDGFGSDNDPEQQAYLDELVSEGYDENMYDGDTDDEDADDINVEKNDEATKDITETNKILLIFSELHYPQEERFSELLVELQTKIAINTSLIDKILSKETTELPTHNGEIADLNEILNEVKGNKPIRKNVIFCTLAHTLSLQSGSELSVLQLSIEVIDHLLVKNHSNNITRGEQFQLIKLILPHLKTNKSFIDTLKAGNFTQKIDEGVTLRTMILSLLLQLFPLDYSMLGEILPTIARYSVRDKDLGVRDLSFQLLDQILRTYYNYLIGIDWEWYKDDFYQVLQETCIKKDINTNLLLQFPPYLPHD
partner: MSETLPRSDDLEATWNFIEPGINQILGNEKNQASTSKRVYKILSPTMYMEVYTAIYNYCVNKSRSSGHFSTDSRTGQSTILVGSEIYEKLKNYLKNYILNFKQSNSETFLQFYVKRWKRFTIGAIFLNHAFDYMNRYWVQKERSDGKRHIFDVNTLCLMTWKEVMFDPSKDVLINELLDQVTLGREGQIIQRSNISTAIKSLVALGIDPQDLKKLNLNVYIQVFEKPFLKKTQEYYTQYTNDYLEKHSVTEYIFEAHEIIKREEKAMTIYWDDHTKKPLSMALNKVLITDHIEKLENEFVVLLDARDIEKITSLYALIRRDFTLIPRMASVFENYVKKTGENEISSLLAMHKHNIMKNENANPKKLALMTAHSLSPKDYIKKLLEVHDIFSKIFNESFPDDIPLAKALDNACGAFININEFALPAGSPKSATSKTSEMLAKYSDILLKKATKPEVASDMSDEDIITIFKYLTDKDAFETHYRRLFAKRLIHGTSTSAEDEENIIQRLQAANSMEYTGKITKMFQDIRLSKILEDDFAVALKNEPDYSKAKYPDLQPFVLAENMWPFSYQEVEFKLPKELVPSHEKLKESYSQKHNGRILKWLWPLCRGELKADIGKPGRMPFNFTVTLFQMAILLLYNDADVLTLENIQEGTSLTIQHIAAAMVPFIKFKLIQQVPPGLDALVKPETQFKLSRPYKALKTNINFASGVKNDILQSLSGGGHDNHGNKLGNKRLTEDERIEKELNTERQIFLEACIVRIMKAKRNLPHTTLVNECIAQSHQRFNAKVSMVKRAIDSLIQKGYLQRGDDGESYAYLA

Variants of: B1
Details: with cdc53_yeast CDC53, Q12018

effect of a mutation on the interaction	Variant
decreasing interaction	G551A
decreasing interaction	N552A

Variants of: B1
Details: with cdc53_yeast CDC53, Q12018
Remark: another data set of the same source

effect of a mutation on the interaction	Variant
disrupting interaction	M23A
disrupting interaction	D17A
disrupting interaction	Y22A
disrupting interaction	D19A
